Paper PMC4690510, “Crystal structure of a novel two domain GH78 family α-rhamnosidase from Klebsiella oxytoca with rhamnose bound” (Proteins, 2015)

Assays:
[1] = target: α-L-rhamnosidase from Klebsiella oxytoca (KoRha) (Klebsiella oxytoca KCTC 1686); test: dynamic light scattering; purified KoRha in solution, DynaPro-Titan instrument, 20°C; hydrodynamic radius 4.8 nm
purified protein = substrate: C[C@@H]1O[C@@H](Oc2ccc([N+](=O)[O-])cc2)[C@H](O)[C@H](O)[C@H]1O; test: purified protein; format: biochemical, Klebsiella oxytoca; conditions: 20 mM MES pH 5.0, 10% DMSO in substrate solution

stoichiometry N [1]	Molecule	Km (purified protein)	kcat (purified protein)
2	α-L-rhamnosidase from Klebsiella oxytoca (KoRha) (enzyme)	–	–
–	KoRha (Klebsiella oxytoca) (protein, synthetic codon-optimised gene in pET15b, E. coli BL21(DE3); residues 11-523 modelled) MSQAIQHNSQVMMTRHPNFLRTAEALRPALSRQAHPPIAVVEAHADAAALFGWRAEPVSTLAAFYQRELSSGDSVIIDFGSHYVGYLHFLCQSAGSPPDAPAHLQLTFGETLSEVCEPFSDYQGWLSSSWLQQQDLWLDVLPAEIDLPRRYCFRYLKVEVKAVSRKFRLQFTQIEVNAVTSASGACPAATTSDPQLRAIDNVAVLTLQNCMQEVFEDGPKRDRRLWLGDLRLQALVNDVTFARHDLVRRCLYLFAGHTREDGMVSANVFVQPDVIADDTFLFDYSLFFVDVLYNYLQSAEDMATARELWPTARRQVELALTRCDASGVVRDSDDWWVFIDWQASLNKQAAAQGVLIYCLQRAIWLAERFEPELAVSYRQRLQQLKSAALDALWDPQQGFYVSGARRQVSWASQIWLVLAEVGTPQQRREIMRNLEKNPPAVAMNTPYLRHHYIAALLQCGLRDEAIAQIKAYWGAMVDYGADTFWEIFDPAHPDFSPYGSKLINSYCHAWSCTPAWFIRQYGL	210 ± 20 µM	0.98 s⁻¹
